Assay results reported in patent US20250163122A1, “COMPOSITIONS AND METHODS FOR TREATING AIRWAY MUCUS DYSFUNCTION” (BOARD OF REGENTS, THE UNIVERSITY OF TEXAS SYSTEM, priority 2022, published 2025).
Bridges are numbered along the chain shown (N, C = ends). [ ]: non-standard residue; d: D form. S5 = C=CCCC[C@](C)(N)C(=O)O

Columns and labels:
[1] = system: Muc5ac secretion from HAECs; assay: Mucin (Muc5ac) secretion assay in HAECs; format: cell-based, human
Experimental: Cell culture. […] Growth medium was replaced every two days. […] The apical medium was replaced after 48 h.
Mucin secretion assay in HAECs. […] In brief, for the 24 h peptide treatment, 20 μl of DMEM+/−100 μM peptides was added to the apical surface 24 h before stimulation. On the day of the assay, cells were washed 5 times with 100 μl DMEM for 1 h for each wash on the apical side. Apical supernatants were collected after every wash ([…]), then 100 μl of DMEM+/−100 μM peptides was added to the apical surface and HAECs incubated for 15 min before collecting the supernatant (baseline wash). HAECs were then incubated for an additional 15 min with 100 μl DMEM+/−100 μM ATP (Sigma) before collection of supernatants (experimental washes). Following sample collection, cells were lysed in 100 μl of lysis buffer (lysate) containing 50 mM Tris-HCl pH 7.2, 1 mM EDTA, 1 mM EGTA, 1% Triton-X (Sigma), protease inhibitor cOmplete mini EDTA-free and phosphatase inhibitor PhosSTOP (Roche, Germany). The protocol was adapted for 30 min peptide treatment as follows. After wash 5, 100 μl of DMEM+/−10 μM or 100 μM of peptides was added to the apical surface and HAECs incubated for 30 min (baseline wash). HAECs were then incubated for 30 min with 100 μl DMEM+/−100 μM ATP to collect experimental washes.
All samples were diluted 1:10 in PBS (washes and cell lysates) and 50 μl of each sample were vacuum-aspirated onto a 0.45 μm pore nitrocellulose membrane using the Bio-Dot® MicrofiltrationApparatus (Bio-Rad). […] All steps were performed at room temperature. Fluorescent signals were acquired using the Odyssey® Fc Imaging System (Li-Cor®, USA) and quantified using ImageJ (v.2.0.0; NIH, USA). Equal volumes of samples were loaded on the gels for control and peptide treatments. […] Stimulated secretion is therefore normalized to baseline secretion within individual filters to account for filter to filter heterogeneities.

[2] = system: mouse airway epithelial cells; assay: Mucin secretion without secretagogue after peptide aerosol in mice with mucous metaplasia; format: in vivo
Experimental: To investigate whether SP9 could have therapeutic benefit in vivo, SP9 conjugated to CPPs and fluorophores was introduced into mouse airways using a microsprayer inserted into the distal trachea under direct visualization with a laryngoscope. […] All subsequent studies of airway mucin secretion were therefore performed in the distal axial bronchus. […] This effect was not observed with the injection of buffer alone.
The peptide solution was injected into the airway under pressure to generate a droplet aerosol. A high concentration of peptides was used in these experiments in part because the solution is expected to be in contact with the airway epithelium only briefly and to mostly end up in the alveolar region.

[3] = molecular target: Syt2 (UniProt P29101 1-422, limits assumed); assay: cell-based or functional assay
Sequence of Syt2 (P29101 whole entry): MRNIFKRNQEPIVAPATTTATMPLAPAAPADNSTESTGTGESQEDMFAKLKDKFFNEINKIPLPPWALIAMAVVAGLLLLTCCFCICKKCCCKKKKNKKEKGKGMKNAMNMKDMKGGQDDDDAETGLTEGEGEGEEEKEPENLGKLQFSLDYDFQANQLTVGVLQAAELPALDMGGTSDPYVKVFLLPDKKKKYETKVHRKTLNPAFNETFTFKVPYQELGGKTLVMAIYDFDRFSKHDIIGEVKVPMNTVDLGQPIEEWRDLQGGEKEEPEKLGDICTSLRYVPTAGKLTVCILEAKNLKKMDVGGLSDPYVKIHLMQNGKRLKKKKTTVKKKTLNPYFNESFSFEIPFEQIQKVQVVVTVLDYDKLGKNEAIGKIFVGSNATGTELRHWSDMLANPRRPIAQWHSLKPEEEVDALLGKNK

[4] = 10 μM peptide, 30 min pre-incubation, metaplastic conditions

## H2N-GRKKRRQRRRPPQEESKDAGIRTLVMLDEQ-(C/Cy3Mal)-amide (H-GRKKRRQRRRPPQEESKDAGIRTLVMLDEQ-{C(Cy3 maleimide)-NH2}) [TAT-P9-Cy3, non-stapled control peptide with TAT and Cy3, reference compound]
[1]; [4]
  effect on stimulated secretion: no effect

## Ac-EE(S5)KDA(S5)IR(S5)LVM(S5)DEQ-(C/Cy3Mal)-amide (Ac-EE[S5]KDA[S5]IR[S5]LVM[S5]DEQC-NH2; staple 10-14, 3-7; also: Cy3 maleimide on C-terminal Cys) [SP9-Cy3]
[1]; [4]
  effect on stimulated secretion: no effect
[1]; 100 μM peptide for 24 h before stimulation
  effect on ATP-stimulated secretion: no effect

## H2N-GRKKRRQRRRPPQEE(S5)KDA(S5)IR(S5)LVM(S5)DEQ-(C/Cy3Mal)-amide (H-GRKKRRQRRRPPQEE[S5]KDA[S5]IR[S5]LVM[S5]DEQ-{C(Cy3 maleimide)-NH2}; staple 16-20, 23-27) [TAT-SP9-Cy3]
[1]; [4]
  reduction of stimulated (IL-13+ATP) Muc5ac secretion: 86%
[1]; 100 μM peptide for 24 h before stimulation, metaplastic HAECs
  reduction of stimulated Muc5ac secretion: 83%
[2]; 300 μM aerosolized, left axial bronchus, IL-13 mouse, PAFS
  intracellular mucin content of cells that internalize the peptide: low intracellular mucin content
[2]; aerosolized 1 mM, left axial bronchus, IL-13 mice
  mucin secretion after peptide aerosol without secretagogue: extensive apocrine mucin secretion
[2]; peptide introduced into airways of mice with mucous metaplasia
  mucin secretion of Cy3-labeled cells without a secretagogue (side-effect): had secreted their mucin stores without stimulation

B1: SP4 (peptide)
peptide: Ac-SKDA[S5]IRT[S5]VM[S5]DEQ[S5]EQL-NH2
modifications: staple 12-16, 5-9
SMILES: CC[C@H](C)[C@@H]1NC(=O)[C@@](C)(NC(=O)[C@H](C)NC(=O)[C@H](CC(=O)O)NC(=O)[C@H](CCCCN)NC(=O)[C@H](CO)NC(C)=O)CCCC=CCCC[C@@](C)(C(=O)N[C@H](C(=O)N[C@@H](CCSC)C(=O)N[C@@]2(C)CCCC=CCCC[C@@](C)(C(=O)N[C@@H](CCC(=O)O)C(=O)N[C@@H](CCC(N)=O)C(=O)N[C@@H](CC(C)C)C(N)=O)NC(=O)[C@H](CCC(N)=O)NC(=O)[C@H](CCC(=O)O)NC(=O)[C@H](CC(=O)O)NC2=O)C(C)C)NC(=O)[C@H]([C@@H](C)O)NC(=O)[C@H](CCCNC(=N)N)NC1=O
[3]
  inhibition of Ca2+-independent fusion probability, single vesicle content mixing with airway epithelial SNAREs and Syt2: ≤ 40%
  inhibition of Ca2+-triggered cumulative fusion probability, single vesicle content mixing with airway epithelial SNAREs and Syt2: ≤ 70%

B2: SP1 (peptide)
peptide: Ac-SKD[S5]GIR[S5]LVMLDE[S5]GEQ[S5]DR-NH2
modifications: staple 15-19, 4-8
SMILES: CC[C@H](C)[C@@H]1NC(=O)CNC(=O)[C@@](C)(NC(=O)[C@H](CC(=O)O)NC(=O)[C@H](CCCCN)NC(=O)[C@H](CO)NC(C)=O)CCCC=CCCC[C@@](C)(C(=O)N[C@@H](CC(C)C)C(=O)N[C@H](C(=O)N[C@@H](CCSC)C(=O)N[C@@H](CC(C)C)C(=O)N[C@@H](CC(=O)O)C(=O)N[C@@H](CCC(=O)O)C(=O)N[C@@]2(C)CCCC=CCCC[C@@](C)(C(=O)N[C@@H](CC(=O)O)C(=O)N[C@@H](CCCNC(=N)N)C(N)=O)NC(=O)[C@H](CCC(N)=O)NC(=O)[C@H](CCC(=O)O)NC(=O)CNC2=O)C(C)C)NC(=O)[C@H](CCCNC(=N)N)NC1=O
[3]
  inhibition of Ca2+-independent fusion probability, single vesicle content mixing with airway epithelial SNAREs and Syt2: ≤ 40%
  inhibition of Ca2+-triggered cumulative fusion probability, single vesicle content mixing with airway epithelial SNAREs and Syt2: ≤ 70%

B3: SP10 (peptide)
peptide: Ac-SKD[S5]GIR[S5]LV[S5]LDE[S5]GEQL-NH2
modifications: staple 11-15, 4-8
SMILES: CC[C@H](C)[C@@H]1NC(=O)CNC(=O)[C@@](C)(NC(=O)[C@H](CC(=O)O)NC(=O)[C@H](CCCCN)NC(=O)[C@H](CO)NC(C)=O)CCCC=CCCC[C@@](C)(C(=O)N[C@@H](CC(C)C)C(=O)N[C@H](C(=O)N[C@@]2(C)CCCC=CCCC[C@@](C)(C(=O)NCC(=O)N[C@@H](CCC(=O)O)C(=O)N[C@@H](CCC(N)=O)C(=O)N[C@@H](CC(C)C)C(N)=O)NC(=O)[C@H](CCC(=O)O)NC(=O)[C@H](CC(=O)O)NC(=O)[C@H](CC(C)C)NC2=O)C(C)C)NC(=O)[C@H](CCCNC(=N)N)NC1=O
[3]
  inhibition of Ca2+-independent fusion probability, single vesicle content mixing with airway epithelial SNAREs and Syt2: ≤ 40%
  inhibition of Ca2+-triggered cumulative fusion probability, single vesicle content mixing with airway epithelial SNAREs and Syt2: ≤ 70%

B4: SP9 (peptide)
peptide: Ac-EE[S5]KDA[S5]IR[S5]LVM[S5]DEQC-NH2
modifications: staple 10-14, 3-7
SMILES: CC[C@H](C)[C@H](NC(=O)[C@]1(C)CCCC=CCCC[C@](C)(NC(=O)[C@H](CCC(=O)O)NC(=O)[C@H](CCC(=O)O)NC(C)=O)C(=O)N[C@@H](CCCCN)C(=O)N[C@@H](CC(=O)O)C(=O)N[C@@H](C)C(=O)N1)C(=O)N[C@@H](CCCNC(=N)N)C(=O)N[C@@]1(C)CCCC=CCCC[C@@](C)(C(=O)N[C@@H](CC(=O)O)C(=O)N[C@@H](CCC(=O)O)C(=O)N[C@@H](CCC(N)=O)C(=O)N[C@@H](CS)C(N)=O)NC(=O)[C@H](CCSC)NC(=O)[C@H](C(C)C)NC(=O)[C@H](CC(C)C)NC1=O
[3]
  inhibition of Ca2+-independent fusion probability, single vesicle content mixing with airway epithelial SNAREs and Syt2: ≤ 40%
  inhibition of Ca2+-triggered cumulative fusion probability, single vesicle content mixing with airway epithelial SNAREs and Syt2: ≤ 70%
